Reference: patent US20160009770A1 (LAWRENCE BERKELEY NATIONAL LABORATORY, published 2016)
Side chains are listed from the residue outwards. Ends that are not written are not given here. dC16 = not defined here

Target: the molecule itself
Experiment: UV-vis heme titration; reports an intact 4-helix bundle (self-association)

B1: dC16-BB-P2K conjugate 8 (designed binder)
peptide: dC16-GGGEIWKLHEEFLC([maleimide-PEG 2000 Da])KFEELLKLHEERLKKM
modifications: reading uncertain
notes: also called BB-dC16-P2K; H10H24-dC16-PEG2K
  binding result: binds
